Test results published in PMC10397247.

Columns and labels:
Experiment in all cases: two-hybrid library CCNG1;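 also: natural log of median RNA to DNA barcode read ratio; higher means stronger binding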
4H3057-bA = target: T1, 4H3057-bA
T1 chain: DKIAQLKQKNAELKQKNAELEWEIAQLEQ

4H2692-bA = target: T2, 4H2692-bA
T2 chain: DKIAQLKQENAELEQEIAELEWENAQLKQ

4H2438-bA = target: T3, 4H2438-bA
T3 chain: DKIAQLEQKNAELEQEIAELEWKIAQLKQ

4H2223-bA = target: T4, 4H2223-bA
T4 chain: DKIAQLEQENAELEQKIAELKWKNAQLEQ

4H741-bA = target: T5, 4H741-bA
T5 chain: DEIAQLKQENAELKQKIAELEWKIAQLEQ

4H2503-bA = target: T6, 4H2503-bA
T6 chain: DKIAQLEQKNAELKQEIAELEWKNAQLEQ

4H2588-bA = target: T7, 4H2588-bA
T7 chain: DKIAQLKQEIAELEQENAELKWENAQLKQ

4H348-bA = target: T8, 4H348-bA
T8 chain: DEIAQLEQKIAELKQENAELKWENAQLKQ

4H2143-bA = target: T9, 4H2143-bA
T9 chain: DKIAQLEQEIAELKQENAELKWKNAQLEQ

4H492-bA = target: T10, 4H492-bA
T10 chain: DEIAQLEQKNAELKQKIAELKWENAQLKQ

4H40-bA = target: T11, 4H40-bA
T11 chain: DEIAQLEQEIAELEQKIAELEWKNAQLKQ

4H2839-bA = target: T12, 4H2839-bA
T12 chain: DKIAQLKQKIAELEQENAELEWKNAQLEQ

4H182-bA = target: T13, 4H182-bA
T13 chain: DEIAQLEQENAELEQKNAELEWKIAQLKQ

4H319-bA = target: T14, 4H319-bA
T14 chain: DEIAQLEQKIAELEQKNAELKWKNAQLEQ

4H2473-bA = target: T15, 4H2473-bA
T15 chain: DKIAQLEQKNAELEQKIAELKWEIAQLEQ

4H2134-bA = target: T16, 4H2134-bA
T16 chain: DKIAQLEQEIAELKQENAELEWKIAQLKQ

4H2717-bA = target: T17, 4H2717-bA
T17 chain: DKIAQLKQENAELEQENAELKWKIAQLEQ

4H477-bA = target: T18, 4H477-bA
T18 chain: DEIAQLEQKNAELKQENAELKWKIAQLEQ

4H3277-bA = target: T19, 4H3277-bA
T19 chain: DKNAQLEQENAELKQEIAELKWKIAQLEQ

4H2915-bA = target: T20, 4H2915-bA
T20 chain: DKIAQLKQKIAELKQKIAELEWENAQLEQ

4H949-bH = target: T21, 4H949-bH
T21 chain: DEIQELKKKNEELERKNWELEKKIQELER

O1-bP = target: T22, O1-bP
T22 chain: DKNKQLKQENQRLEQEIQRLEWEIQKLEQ

4H932-bH = target: T23, 4H932-bH
T23 chain: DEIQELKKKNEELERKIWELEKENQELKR

Q: DEIAQLEQENAELEQKNAELEWKIAQLKQ [4H182-bA] was tested. Which interaction score (4H3057-bA) did it give?
A: Its interaction score is 2.13.

Q: What about the interaction score (4H2692-bA) of the same binder?
A: Its interaction score is 0.136.

Q: What about the interaction score (4H2438-bA) of the same binder?
A: The interaction score was -0.622.

Q: And the interaction score (4H2223-bA)?
A: Its interaction score is -0.693.

Q: What about the interaction score (4H741-bA) of the same binder?
A: The interaction score was -0.573.

Q: What about the interaction score (4H2503-bA) of the same binder?
A: The interaction score was -0.357.

Q: What about the interaction score (4H2588-bA) of the same binder?
A: Its interaction score is 0.365.

Q: What about the interaction score (4H348-bA) of the same binder?
A: Its interaction score is -1.35.

Q: What about the interaction score (4H2143-bA) of the same binder?
A: Its interaction score is -0.647.

Q: And the interaction score (4H492-bA)?
A: The interaction score was -0.651.

Q: And the interaction score (4H40-bA)?
A: The interaction score was -1.06.

Q: And the interaction score (4H2839-bA)?
A: Its interaction score is 0.49.

Q: And the interaction score (4H182-bA)?
A: The interaction score was -0.0793.

Q: What about the interaction score (4H319-bA) of the same binder?
A: Its interaction score is -0.41.

Q: What about the interaction score (4H2473-bA) of the same binder?
A: Its interaction score is -0.132.

Q: And the interaction score (4H2134-bA)?
A: The interaction score was -0.497.

Q: What about the interaction score (4H2717-bA) of the same binder?
A: Its interaction score is 0.261.

Q: And the interaction score (4H477-bA)?
A: The interaction score was -0.804.

Q: What about the interaction score (4H3277-bA) of the same binder?
A: Its interaction score is -0.0929.

Q: What about the interaction score (4H2915-bA) of the same binder?
A: Its interaction score is 0.668.

Q: Which results are given for DEIQELKKKNEELERKIWELEKENQELKR [4H932-bH]?
A: interaction score (4H949-bH): -0.517; interaction score (O1-bP): -1.96; interaction score (4H932-bH): -0.509
